In patent publication US20240425588A1 (published 2024):

Molecular target: Cynomolgus TIGIT
Experiment: Biacore

B1: 50C2 Humanized (Hu) (antibody, V domains shown)
VH: QVQLQESGPGLVKPSETLSLTCTVSGFSLTNYNINWIRQPPGKGLEWIGVIWTGGGTNYNSAFMSRVTISKDTSKNQVSLKLSSVTAADTAVYYCVREAYFSNYGFYFDYWGQGTLVTVSS
VL: DIQMTQSPSSLSASVGDRVTITCSASSSISSNYLHWYQQKPGKAPKLLIYRTSNLASGVPSRFSGSGSGTDFTLTISSLQPEDFATYYCQQGSSIPRTFGGGTKVEIK
Kd: 69.5 nM
